Reference: paper PMC4137956

Key:
Test in all cases: SPR; biotinylated SIRPα variants bound to streptavidin immobilised on a BIAcore CM5 chip, BIAcore 3000, 37°; dilutions of monomeric recombinant CD47 extracellular domain passed over; affinity from equilibrium binding
[1] = target: NOD mouse SIRPα, N-terminal domain (d1), wild type (mouse)
[2] = target: human SIRPα V2, three extracellular IgSF domains (3d) (human) (UniProt P78324)
[3] = target: NOD mouse SIRPα + SE mutant, N-terminal domain (d1) (mouse)
[4] = target: NOD mouse SIRPα + SE mutant, three extracellular IgSF domains (3d) (mouse)

Chain of mouse CD47 IgSF domain, monomeric recombinant extracellular domain (Q61735 19-139): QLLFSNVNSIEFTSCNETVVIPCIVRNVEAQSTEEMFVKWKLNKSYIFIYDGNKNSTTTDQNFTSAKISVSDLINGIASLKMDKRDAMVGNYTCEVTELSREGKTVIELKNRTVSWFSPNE
Chain of NOD mouse SIRPα, N-terminal domain (d1), wild type (mouse) (P97797 1-148): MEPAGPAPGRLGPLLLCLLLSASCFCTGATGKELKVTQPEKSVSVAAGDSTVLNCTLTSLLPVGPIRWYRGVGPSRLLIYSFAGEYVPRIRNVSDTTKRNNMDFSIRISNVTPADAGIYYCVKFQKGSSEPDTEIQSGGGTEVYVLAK
Chain of human CD47 IgSF domain, monomeric recombinant extracellular domain (Q08722 19-136): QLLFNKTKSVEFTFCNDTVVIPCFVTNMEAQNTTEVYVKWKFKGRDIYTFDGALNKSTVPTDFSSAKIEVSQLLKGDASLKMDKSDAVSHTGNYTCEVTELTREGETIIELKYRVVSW

| Kd [1] [µM] | Kd [2] [µM] | Kd [3] [µM] | Kd [4] [µM] | Substance |
| --- | --- | --- | --- | --- |
| 0.08 | 0.6 | 9.4 | 7.6 | human CD47 IgSF domain, monomeric recombinant extracellular domain (from UniProt Q08722-1 19-136) (domain or fragment) |
| 4.7 | > 30 | 11.8 | 8.6 | mouse CD47 IgSF domain, monomeric recombinant extracellular domain (from UniProt Q61735 19-139) (domain or fragment) |
